Biological target: the molecule itself
Test: AUC

Row | Protein | binding result
1 | Sirt1-214-747 (domain or fragment) ELDDMTLWQIVINILSEPPKRKKRKDINTIEDAVKLLQECKKIIVLTGAGVSVSCGIPDFRSRDGIYARLAVDFPDLPDPQAMFDIEYFRKDPRPFFKFAKEIYPGQFQPSLCHKFIALSDKEGKLLRNYTQNIDTLEQVAGIQRIIQCHGSFATASCLICKYKVDCEAVRGDIFNQVVPRCPRCPADEPLAIMKPEIVFFGENLPEQFHRAMKYDKDEVDLLIVIGSSLKVRPVALIPSSIPHEVPQILINREPLPHLHFDVELLGDCDVIINELCHRLGGEYAKLCCNPVKLSEITEKPPRTQKELAYLSELPPTPLHVSEDSSSPERTSPPDSSVIVTLLDQAAKSNDDLDVSESKGCMEEKPQEVQTSRNVESIAEQMENPDLKNVGSSTGEKNERTSVAGTVRKCWPNRVAKEQISRRLDGNQYLFLPPNRYIFHGAEVYSDSEDDVLSSSSCGSNSDSGTCQSPSLEEPMEDESEIEEFYNGLEDEPDVPERAGGAGFGTDGDDQEAINEAISVKQEVTDMNYPSNKS | binds
2 | Sirt1-214-664 (domain or fragment) ELDDMTLWQIVINILSEPPKRKKRKDINTIEDAVKLLQECKKIIVLTGAGVSVSCGIPDFRSRDGIYARLAVDFPDLPDPQAMFDIEYFRKDPRPFFKFAKEIYPGQFQPSLCHKFIALSDKEGKLLRNYTQNIDTLEQVAGIQRIIQCHGSFATASCLICKYKVDCEAVRGDIFNQVVPRCPRCPADEPLAIMKPEIVFFGENLPEQFHRAMKYDKDEVDLLIVIGSSLKVRPVALIPSSIPHEVPQILINREPLPHLHFDVELLGDCDVIINELCHRLGGEYAKLCCNPVKLSEITEKPPRTQKELAYLSELPPTPLHVSEDSSSPERTSPPDSSVIVTLLDQAAKSNDDLDVSESKGCMEEKPQEVQTSRNVESIAEQMENPDLKNVGSSTGEKNERTSVAGTVRKCWPNRVAKEQISRRLDGNQYLFLPPNRYIFHGAEVYSDSEDD | binds
